Data published in the supplement of paper PMC9876800.

System: peptide library, one residue held at a place counted from the S/T acceptor
Experiment: relative phosphorylation of the sub-library (ratio to the mean residue at this position); higher = residue favoured
Conditions: human
Method in brief: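 Human or orthologue kinase constructs, purified and recombinant, were incubated under kinase-specific conditions in 384-well plates with biotinylated degenerate peptide sub-libraries. Each sub-library fixed one residue at one position around a central Ser/Thr. Incubations lasted 90 min with peptides at 50 μM and 50 μM ATP spiked with γ-32P-ATP, after which spots on streptavidin membranes were phosphorimaged and quantified by densitometry. Relative sub-library phosphorylation is a ratio to the mean residue at that position.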

Chain of DCLK1, construct: aa351-689 (O15075 351-689, looked up): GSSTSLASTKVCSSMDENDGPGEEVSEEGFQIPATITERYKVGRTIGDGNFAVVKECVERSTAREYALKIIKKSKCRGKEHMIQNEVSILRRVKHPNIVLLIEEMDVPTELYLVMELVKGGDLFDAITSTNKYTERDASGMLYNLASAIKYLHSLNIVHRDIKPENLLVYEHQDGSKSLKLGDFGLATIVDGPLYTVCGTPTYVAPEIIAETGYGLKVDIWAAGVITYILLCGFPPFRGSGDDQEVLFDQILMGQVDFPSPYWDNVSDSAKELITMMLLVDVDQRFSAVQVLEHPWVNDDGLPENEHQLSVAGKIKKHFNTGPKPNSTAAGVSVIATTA
Chain of CDK3, construct: Full length (Q00526 whole entry, looked up): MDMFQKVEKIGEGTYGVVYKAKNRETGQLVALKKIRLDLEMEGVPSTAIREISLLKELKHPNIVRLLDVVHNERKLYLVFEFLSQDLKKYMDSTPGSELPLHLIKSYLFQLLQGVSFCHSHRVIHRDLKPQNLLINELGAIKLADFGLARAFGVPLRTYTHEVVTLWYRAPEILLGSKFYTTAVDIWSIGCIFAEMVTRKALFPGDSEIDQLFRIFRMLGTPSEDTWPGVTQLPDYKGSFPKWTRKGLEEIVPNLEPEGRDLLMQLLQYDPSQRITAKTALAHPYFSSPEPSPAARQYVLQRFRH
Chain of HIPK2, construct: aa153-564 (Q9H2X6 153-564, looked up): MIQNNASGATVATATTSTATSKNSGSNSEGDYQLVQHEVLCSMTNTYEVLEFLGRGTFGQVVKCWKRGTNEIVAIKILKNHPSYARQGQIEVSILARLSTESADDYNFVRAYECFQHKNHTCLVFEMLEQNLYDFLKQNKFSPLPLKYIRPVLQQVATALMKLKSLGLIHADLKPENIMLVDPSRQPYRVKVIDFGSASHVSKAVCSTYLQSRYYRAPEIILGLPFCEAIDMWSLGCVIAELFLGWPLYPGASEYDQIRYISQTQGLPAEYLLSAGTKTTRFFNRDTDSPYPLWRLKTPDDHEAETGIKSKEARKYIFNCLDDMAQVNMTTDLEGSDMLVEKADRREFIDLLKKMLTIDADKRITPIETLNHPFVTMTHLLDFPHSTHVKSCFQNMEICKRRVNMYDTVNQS

CAMK4, construct: Full length (from UniProt Q16566)
relative phosphorylation
Conditions	at +1	at +2	at +3	at +4	at -1	at -2	at -3	at -4	at -5
A fixed	0.518	0.587	0.723	0.805	0.66	0.761	0.61	0.815	0.598
D fixed	0.574	0.588	0.925	0.978	0.92	0.327	0.27	0.479	0.347
E fixed	0.727	0.483	0.846	0.999	0.722	0.386	0.404	0.705	0.364
F fixed	3.32	0.95	1.12	1	1.02	0.667	0.559	1.01	1.75
G fixed	0.745	0.525	0.905	0.847	0.692	0.573	0.566	0.861	0.631
H fixed	0.86	1.99	1.19	1.08	1.18	1.3	1.32	1.17	0.781
I fixed	0.95	1.24	0.874	0.837	0.711	0.484	0.449	0.865	1.22
K fixed	0.738	0.848	0.896	0.942	1.35	2.46	2.9	1.67	1.02
L fixed	0.822	1.25	1.04	1.06	1.05	0.547	0.432	1.01	1.85
M fixed	1.23	1.15	1	0.978	0.99	0.783	0.671	1.17	1.3
N fixed	0.977	1.08	1.21	1.14	1.36	1.06	0.723	0.962	0.651
P fixed	0.167	0.652	0.919	1.24	1.09	0.38	0.706	0.642	0.827
Q fixed	1.12	0.862	0.904	1.17	1.21	1.34	0.854	0.951	0.755
R fixed	0.929	1.24	0.977	1.04	1.27	3.93	4.59	1.73	1.48
V fixed	0.815	1.08	0.8	0.739	0.744	0.501	0.408	0.938	0.98
W fixed	1.25	1.16	1.39	1.12	0.93	0.744	0.841	0.949	1.1
Y fixed	1.26	1.33	1.27	1.03	1.1	0.756	0.695	1.09	1.35
pThr fixed	0.934	0.905	0.892	1.02	0.56	0.621	0.672	0.718	0.63
pTyr fixed	0.811	0.793	0.936	0.824	1.09	0.424	0.482	0.653	0.661

CDK3, construct: Full length (from UniProt Q00526)
relative phosphorylation
Conditions	at +1	at +2	at +3	at +4	at -1	at -2	at -3	at -4	at -5
A fixed	0.28	1.2	0.418	1.14	1.12	1.17	1.14	1.23	1.11
D fixed	0.17	0.658	0.277	0.882	0.844	0.837	0.997	1.07	1.31
E fixed	0.172	0.626	0.25	0.783	0.718	0.938	0.839	1.29	1.06
F fixed	0.14	0.857	0.261	0.778	0.703	0.855	0.746	0.8	0.944
G fixed	0.912	0.851	0.612	1.43	1.72	1.28	1.83	1.49	1.37
H fixed	0.177	1.06	0.699	1.06	0.778	0.981	0.984	0.966	0.993
I fixed	0.156	0.775	0.261	0.697	0.343	0.691	0.618	0.589	0.656
K fixed	0.214	2	9.66	1.99	1.58	0.753	0.978	1.1	1.06
L fixed	0.156	0.891	0.266	0.736	0.741	0.957	0.777	0.709	0.629
M fixed	0.167	0.98	0.284	0.962	0.969	0.889	0.766	0.957	0.695
N fixed	0.193	1.05	0.405	0.988	1.1	0.909	1.06	0.938	0.887
P fixed	13.3	0.682	0.644	1.04	1.87	2.78	2.04	1.54	1.51
Q fixed	0.212	1.29	0.401	0.933	1.17	0.825	0.943	0.836	0.915
R fixed	0.2	1.9	1.69	1.1	1.48	0.835	1	1.01	1.12
V fixed	0.216	0.851	0.302	0.682	0.453	0.688	0.654	0.602	0.832
W fixed	0.155	0.653	0.277	1.05	0.613	0.867	0.807	0.969	1.01
Y fixed	0.142	0.664	0.288	0.741	0.793	0.744	0.814	0.891	0.895
pThr fixed	0.523	0.933	0.86	0.685	0.434	0.731	0.886	1	1.24
pTyr fixed	0.633	0.538	0.927	0.718	0.48	0.698	0.853	0.982	0.947

DCLK1, construct: aa351-689 (from UniProt O15075)
relative phosphorylation
Conditions	at +1	at +2	at +3	at +4	at -1	at -2	at -3	at -4	at -5
A fixed	0.741	1.04	0.876	0.928	0.957	1.35	0.773	1.13	1.09
D fixed	0.495	0.579	0.771	0.814	0.62	0.651	0.307	0.553	0.468
E fixed	0.508	0.36	0.817	0.761	0.362	1.5	0.386	0.912	0.452
F fixed	2.44	1.04	0.991	1.34	0.427	0.582	0.281	0.617	1.08
G fixed	0.765	0.962	1.25	1.11	1.72	1.45	0.704	1.09	1.07
H fixed	1.01	1.39	1.38	0.944	1.33	1.12	0.979	1.15	1.01
I fixed	0.485	1.08	0.571	0.972	0.277	0.315	0.133	0.462	0.759
K fixed	1.1	0.523	1.27	1.23	2.27	1.5	3.37	2.12	1.56
L fixed	0.774	1.3	0.952	1.03	0.745	0.499	0.245	0.659	1.02
M fixed	1.53	1.48	0.66	1.26	0.797	1.06	0.415	0.947	0.938
N fixed	1.11	0.719	0.988	0.871	1.07	1.12	0.568	0.909	0.716
P fixed	0.274	0.63	0.789	1.17	1.37	0.383	0.821	1.08	1.16
Q fixed	1.13	0.626	1.16	0.925	0.958	1.75	0.771	1.04	0.907
R fixed	1.22	0.52	1.46	1.05	2.01	1.78	6.04	1.92	1.68
V fixed	0.705	1.23	0.79	0.889	0.529	0.464	0.244	0.665	0.886
W fixed	1.34	1.59	1.32	0.929	0.528	0.685	0.475	0.876	1.36
Y fixed	1.38	1.94	0.953	0.781	1.03	0.785	0.486	0.861	0.832
pThr fixed	0.78	0.776	0.779	1.2	0.322	0.357	0.407	0.688	0.712
pTyr fixed	1.01	2.9	0.913	0.688	0.585	0.497	0.391	0.683	0.813

HIPK2, construct: aa153-564 (from UniProt Q9H2X6)
relative phosphorylation
Conditions	at +1	at +2	at +3	at +4	at -1	at -2	at -3	at -4	at -5
A fixed	0.477	1.23	0.93	0.869	1.32	2.32	0.857	1.07	1.08
D fixed	0.109	0.923	0.689	0.906	0.483	0.281	0.703	0.956	0.993
E fixed	0.125	0.509	0.582	0.75	0.514	0.284	0.592	1	0.893
F fixed	0.151	1.2	0.766	1.12	0.482	0.32	0.261	0.575	0.814
G fixed	0.628	1.64	1.4	1.16	1.16	0.943	1.33	1.24	1.09
H fixed	0.224	1.34	1.08	1.01	0.948	0.387	0.658	0.899	1.09
I fixed	0.225	0.631	0.649	0.95	0.397	0.66	0.279	0.562	0.686
K fixed	0.284	1.2	0.738	1.04	1.98	0.671	1.2	1.05	1.1
L fixed	0.189	0.634	0.803	0.839	0.578	0.621	0.361	0.69	0.754
M fixed	0.183	0.765	0.742	0.901	0.782	0.543	0.326	0.72	0.652
N fixed	0.235	1.02	0.953	0.878	0.843	0.739	0.784	0.887	0.971
P fixed	11.5	1.46	3.51	1.06	1.95	4.16	1.06	2.04	1.49
Q fixed	0.251	0.766	0.971	1.11	1.35	0.569	0.821	0.977	0.993
R fixed	1.6	1.22	0.914	0.993	2.33	2.9	6.74	2.38	1.72
V fixed	0.481	0.722	0.677	1.01	0.65	0.949	0.34	0.574	0.716
W fixed	0.161	0.951	0.852	1.3	0.624	0.304	0.348	0.655	0.782
Y fixed	0.163	0.79	0.741	1.11	0.604	0.347	0.35	0.727	1.16
pThr fixed	0.283	0.441	0.615	0.816	0.423	1.04	0.734	1.27	1.23
pTyr fixed	0.251	0.431	0.989	1.15	0.614	0.375	0.628	1.01	1.19
